Experimental data reported in the supplement of paper PMC7125110.
± gives the standard error. Variants at the floor of the assay were thinned out.

B1: glmS ribozyme (parent)
chain: AUAAAAGCGCCAGAACUACAGAAAUGUAGUUGACGAGGAGGAGGUUUAUCGAAUUUUCGGCGGAUGCCUCCAAA

Tests used:
Settings in all cases: with glucosamine-6-phosphate
glucosamine-6-phosphate [1] = variants of: B1; test: self-cleavage kobs at 40 uM GlcN6P; higher = faster cleavage; RNA array
In short: (§1)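 Weighted Michaelis–Menten fits across concentrations supplied kcat and KM, based on kobs from one- or two-exponential decay fits to normalised per-tile medians. The data came from barcoded ribozyme variants transcribed in situ by E. coli RNA polymerase on sequenced MiSeq chips and tracked at 37 °C by a hybridised Cy3 probe. Glucosamine-6-phosphate (40 μM to 10 mM) in HEPES/KCl/Mg(OAc)2 buffer was flowed in.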

glucosamine-6-phosphate [2] = variants of: B1; test: self-cleavage kobs at 640 uM GlcN6P; higher = faster cleavage; RNA array
In short: as §1

glucosamine-6-phosphate [3] = variants of: B1; test: self-cleavage kobs at 2500 uM GlcN6P; higher = faster cleavage; RNA array
In short: as §1

glucosamine-6-phosphate [4] = variants of: B1; test: self-cleavage kobs at 10000 uM GlcN6P; higher = faster cleavage; RNA array
In short: as §1

glucosamine-6-phosphate [5] = variants of: B1; test: self-cleavage kobs at 160 uM GlcN6P; higher = faster cleavage; RNA array
In short: as §1

U30G C58G
self-cleavage kobs at 40 uM GlcN6P (glucosamine-6-phosphate [1]): < 1e-05 s⁻¹ | self-cleavage kobs at 640 uM GlcN6P (glucosamine-6-phosphate [2]): 6.88e-05 ± 3e-05 s⁻¹ | self-cleavage kobs at 2500 uM GlcN6P (glucosamine-6-phosphate [3]): 6.46e-05 ± 1.8e-05 s⁻¹ | self-cleavage kobs at 10000 uM GlcN6P (glucosamine-6-phosphate [4]): 0.000122 ± 1.4e-05 s⁻¹

G41C A48C
self-cleavage kobs at 40 uM GlcN6P (glucosamine-6-phosphate [1]): < 1e-05 s⁻¹ | self-cleavage kobs at 640 uM GlcN6P (glucosamine-6-phosphate [2]): < 1e-05 s⁻¹ | self-cleavage kobs at 2500 uM GlcN6P (glucosamine-6-phosphate [3]): < 1e-05 s⁻¹ | self-cleavage kobs at 10000 uM GlcN6P (glucosamine-6-phosphate [4]): < 1e-05 s⁻¹

C8U A36C G41C
self-cleavage kobs at 40 uM GlcN6P (glucosamine-6-phosphate [1]): < 1e-05 s⁻¹

G7U G32A
self-cleavage kobs at 40 uM GlcN6P (glucosamine-6-phosphate [1]): < 1e-05 s⁻¹ | self-cleavage kobs at 160 uM GlcN6P (glucosamine-6-phosphate [5]): < 1e-05 s⁻¹ | self-cleavage kobs at 640 uM GlcN6P (glucosamine-6-phosphate [2]): < 1e-05 s⁻¹ | self-cleavage kobs at 2500 uM GlcN6P (glucosamine-6-phosphate [3]): < 1e-05 s⁻¹ | self-cleavage kobs at 10000 uM GlcN6P (glucosamine-6-phosphate [4]): < 1e-05 s⁻¹

A42U G59U
self-cleavage kobs at 40 uM GlcN6P (glucosamine-6-phosphate [1]): < 1e-05 s⁻¹ | self-cleavage kobs at 160 uM GlcN6P (glucosamine-6-phosphate [5]): < 1e-05 s⁻¹ | self-cleavage kobs at 640 uM GlcN6P (glucosamine-6-phosphate [2]): < 1e-05 s⁻¹ | self-cleavage kobs at 10000 uM GlcN6P (glucosamine-6-phosphate [4]): < 1e-05 s⁻¹

U30A U69G
self-cleavage kobs at 40 uM GlcN6P (glucosamine-6-phosphate [1]): < 1e-05 s⁻¹

G13A G44U C50G C71U
self-cleavage kobs at 40 uM GlcN6P (glucosamine-6-phosphate [1]): < 1e-05 s⁻¹ | self-cleavage kobs at 640 uM GlcN6P (glucosamine-6-phosphate [2]): < 1e-05 s⁻¹

A6U G29U C50U G66C
self-cleavage kobs at 40 uM GlcN6P (glucosamine-6-phosphate [1]): < 1e-05 s⁻¹ | self-cleavage kobs at 10000 uM GlcN6P (glucosamine-6-phosphate [4]): < 1e-05 s⁻¹

A14U C50G C58U
self-cleavage kobs at 40 uM GlcN6P (glucosamine-6-phosphate [1]): 0.000443 ± 0.00014 s⁻¹ | self-cleavage kobs at 10000 uM GlcN6P (glucosamine-6-phosphate [4]): 3.69e-05 ± 1.8e-05 s⁻¹

G38U U46C
self-cleavage kobs at 40 uM GlcN6P (glucosamine-6-phosphate [1]): < 1e-05 s⁻¹ | self-cleavage kobs at 2500 uM GlcN6P (glucosamine-6-phosphate [3]): < 1e-05 s⁻¹

C8U G35U
self-cleavage kobs at 40 uM GlcN6P (glucosamine-6-phosphate [1]): < 1e-05 s⁻¹ | self-cleavage kobs at 160 uM GlcN6P (glucosamine-6-phosphate [5]): < 1e-05 s⁻¹ | self-cleavage kobs at 640 uM GlcN6P (glucosamine-6-phosphate [2]): < 1e-05 s⁻¹ | self-cleavage kobs at 2500 uM GlcN6P (glucosamine-6-phosphate [3]): < 1e-05 s⁻¹ | self-cleavage kobs at 10000 uM GlcN6P (glucosamine-6-phosphate [4]): < 1e-05 s⁻¹

C61G A64U C68A
self-cleavage kobs at 40 uM GlcN6P (glucosamine-6-phosphate [1]): < 1e-05 s⁻¹

C10U C50U U57C
self-cleavage kobs at 40 uM GlcN6P (glucosamine-6-phosphate [1]): < 1e-05 s⁻¹

C8A G40A G63A
self-cleavage kobs at 40 uM GlcN6P (glucosamine-6-phosphate [1]): < 1e-05 s⁻¹ | self-cleavage kobs at 10000 uM GlcN6P (glucosamine-6-phosphate [4]): < 1e-05 s⁻¹

G44A U56C
self-cleavage kobs at 40 uM GlcN6P (glucosamine-6-phosphate [1]): < 1e-05 s⁻¹ | self-cleavage kobs at 160 uM GlcN6P (glucosamine-6-phosphate [5]): < 1e-05 s⁻¹ | self-cleavage kobs at 10000 uM GlcN6P (glucosamine-6-phosphate [4]): < 1e-05 s⁻¹

C8U U57C
self-cleavage kobs at 40 uM GlcN6P (glucosamine-6-phosphate [1]): < 1e-05 s⁻¹ | self-cleavage kobs at 160 uM GlcN6P (glucosamine-6-phosphate [5]): < 1e-05 s⁻¹ | self-cleavage kobs at 640 uM GlcN6P (glucosamine-6-phosphate [2]): < 1e-05 s⁻¹ | self-cleavage kobs at 2500 uM GlcN6P (glucosamine-6-phosphate [3]): < 1e-05 s⁻¹ | self-cleavage kobs at 10000 uM GlcN6P (glucosamine-6-phosphate [4]): < 1e-05 s⁻¹

C11G G44C
self-cleavage kobs at 40 uM GlcN6P (glucosamine-6-phosphate [1]): < 1e-05 s⁻¹ | self-cleavage kobs at 160 uM GlcN6P (glucosamine-6-phosphate [5]): < 1e-05 s⁻¹ | self-cleavage kobs at 640 uM GlcN6P (glucosamine-6-phosphate [2]): < 1e-05 s⁻¹ | self-cleavage kobs at 2500 uM GlcN6P (glucosamine-6-phosphate [3]): < 1e-05 s⁻¹

G32U G38C
self-cleavage kobs at 40 uM GlcN6P (glucosamine-6-phosphate [1]): < 1e-05 s⁻¹

G29A G51A
self-cleavage kobs at 40 uM GlcN6P (glucosamine-6-phosphate [1]): < 1e-05 s⁻¹ | self-cleavage kobs at 10000 uM GlcN6P (glucosamine-6-phosphate [4]): < 1e-05 s⁻¹

G9C C70A
self-cleavage kobs at 40 uM GlcN6P (glucosamine-6-phosphate [1]): < 1e-05 s⁻¹ | self-cleavage kobs at 160 uM GlcN6P (glucosamine-6-phosphate [5]): < 1e-05 s⁻¹ | self-cleavage kobs at 640 uM GlcN6P (glucosamine-6-phosphate [2]): < 1e-05 s⁻¹ | self-cleavage kobs at 10000 uM GlcN6P (glucosamine-6-phosphate [4]): < 1e-05 s⁻¹

C34A U65G
self-cleavage kobs at 40 uM GlcN6P (glucosamine-6-phosphate [1]): < 1e-05 s⁻¹ | self-cleavage kobs at 160 uM GlcN6P (glucosamine-6-phosphate [5]): < 1e-05 s⁻¹ | self-cleavage kobs at 640 uM GlcN6P (glucosamine-6-phosphate [2]): < 1e-05 s⁻¹ | self-cleavage kobs at 2500 uM GlcN6P (glucosamine-6-phosphate [3]): < 1e-05 s⁻¹ | self-cleavage kobs at 10000 uM GlcN6P (glucosamine-6-phosphate [4]): < 1e-05 s⁻¹

C11G A53C
self-cleavage kobs at 40 uM GlcN6P (glucosamine-6-phosphate [1]): < 1e-05 s⁻¹ | self-cleavage kobs at 160 uM GlcN6P (glucosamine-6-phosphate [5]): < 1e-05 s⁻¹ | self-cleavage kobs at 640 uM GlcN6P (glucosamine-6-phosphate [2]): < 1e-05 s⁻¹ | self-cleavage kobs at 2500 uM GlcN6P (glucosamine-6-phosphate [3]): < 1e-05 s⁻¹ | self-cleavage kobs at 10000 uM GlcN6P (glucosamine-6-phosphate [4]): < 1e-05 s⁻¹
